Laboratory results from the Immune Epitope Database (IEDB).

Key:
HLA-A*01:01 = experiment: IEDB peptide-MHC binding, purified MHC/competitive/radioactivity; filed as Kd, often an IC50 or EC50 that approximates it; ≥ and ≤ were set here for values at or beyond the usual limits of such assays; details: source organism: Dengue virus 4 Philippines/H241/1956
HLA-A*32:01 = experiment: as above; details: source organism: Dengue virus 4 Philippines/H241/1956
HLA-A*30:02 = experiment: as above; details: source organism: Dengue virus 4 Philippines/H241/1956
HLA-B*57:01 = experiment: as above; details: source organism: Dengue virus 4 Philippines/H241/1956
HLA-B*15:02 = experiment: IEDB peptide-MHC binding, purified MHC/direct/fluorescence; filed as Kd, often an IC50 or EC50 that approximates it; ≥ and ≤ were set here for values at or beyond the usual limits of such assays; details: source organism: dengue virus type 4
HLA-B*46:01 = experiment: as above; details: source organism: dengue virus type 4
HLA-A*11:01 = experiment: IEDB peptide-MHC binding, purified MHC/competitive/radioactivity; ≥ and ≤ were set here for values at or beyond the usual limits of such assays; details: source organism: Toxoplasma gondii
HLA-B*07:02 = experiment: as above; details: source organism: Toxoplasma gondii
HLA-A*02:01 = experiment: as above; details: source organism: Toxoplasma gondii

What does the source list for RTWAYHGSY?
Kd (HLA-A*01:01): 1280 nM; Kd (HLA-A*32:01): 1.46 nM; Kd (HLA-A*30:02): 0.19 nM; Kd (HLA-B*57:01): 15.8 nM; Kd (HLA-B*15:02): ≥ 20000 nM; Kd (HLA-B*46:01): ≥ 20000 nM

Which results are given for STFWPCLLR?
IC50 (HLA-A*11:01): 9.3 nM; IC50 (HLA-B*07:02): ≥ 50000 nM; IC50 (HLA-A*02:01): 27000 nM
